From the supplement of paper PMC11246515
± gives the standard deviation of the averaged measurements.

Test: total protein half-life in vivo (active degradation + dilution); higher = more stable protein
[1] = E. coli NCM3722 delta-clpP delta-lon delta-hslV, growth: N-lim chemostat, doubling time 6 h
[2] = E. coli NCM3722 delta-clpP, growth: N-lim chemostat, doubling time 6 h
[3] = E. coli NCM3722 delta-hslV, growth: N-lim chemostat, doubling time 6 h
[4] = E. coli NCM3722 delta-lon, growth: N-lim chemostat, doubling time 6 h
[5] = E. coli NCM3722 delta-smpB, growth: N-lim chemostat, doubling time 6 h
[6] = wild type E. coli NCM3722, growth: C-lim chemostat, doubling time 3 h
[7] = wild type E. coli NCM3722, growth: C-lim chemostat, doubling time 6 h
[8] = wild type E. coli NCM3722, growth: C-lim chemostat, doubling time 12 h
[9] = wild type E. coli NCM3722, growth: N-lim chemostat, doubling time 6 h
[10] = wild type E. coli NCM3722, growth: N-lim chemostat, doubling time 12 h
[11] = wild type E. coli NCM3722, growth: P-lim chemostat, doubling time 6 h
[12] = wild type E. coli NCM3722, growth: P-lim chemostat, doubling time 12 h

Sequence | total protein half-life in vivo [1] | total protein half-life in vivo [2] | total protein half-life in vivo [3] | total protein half-life in vivo [4] | total protein half-life in vivo [5] | total protein half-life in vivo [6] | total protein half-life in vivo [7] | total protein half-life in vivo [8] | total protein half-life in vivo [9] | total protein half-life in vivo [10] | total protein half-life in vivo [11] | total protein half-life in vivo [12]
MKLPVREFDAVVIGAGGAGMRAALQISQSGQTCALLSKVFPTRSHTVSAQGGITVALGNTHEDNWEWHMYDTVKGSDYIGDQDAIEYMCKTGPEAILELEHMGLPFSRLDDGRIYQRPFGGQSKNFGGEQAARTAAAADRTGHALLHTLYQQNLKNHTTIFSEWYALDLVKNQDGAVVGCTALCIETGEVVYFKARATVLATGGAGRIYQSTTNAHINTGDGVGMAIRAGVPVQDMEMWQFHPTGIAGAGVLVTEGCRGEGGYLLNKHGERFMERYAPNAKDLAGRDVVARSIMIEIREGRGCDGPWGPHAKLKLDHLGKEVLESRLPGILELSRTFAHVDPVKEPIPVIPTCHYMMGGIPTKVTGQALTVNEKGEDVVVPGLFAVGEIACVSVHGANRLGGNSLLDLVVFGRAAGLHLQESIAEQGALRDASESDVEASLDRLNRWNNNRNGEDPVAIRKALQECMQHNFSVFREGDAMAKGLEQLKVIRERLKNARLDDTSSEFNTQRVECLELDNLMETAYATAVSANFRTESRGAHSRFDFPDRDDENWLCHSLYLPESESMTRRSVNMEPKLRPAFPPKIRTY [P0AC41] | 6.32 ± 0.098 h | 6.04 ± 0.75 h | 5.73 ± 0.33 h | 5.17 ± 0.66 h | 5.69 ± 0.26 h | 3.17 ± 0.15 h | 6.49 ± 0.39 h | 11.6 ± 1.4 h | 5.81 ± 0.35 h | 11 ± 0.49 h | 6.2 ± 0.12 h | 13.3 ± 0.3 h
MSAQPVDIQIFGRSLRVNCPPDQRDALNQAADDLNQRLQDLKERTRVTNTEQLVFIAALNISYELAQEKAKTRDYAASMEQRIRMLQQTIEQALLEQGRITEKTNQNFE [P0ADS2] | – | > 8 h | 6.14 ± 0.47 h | 6.82 ± 0.47 h | 5.21 ± 0.4 h | 3.87 h | 6.05 ± 0.48 h | 10.5 h | 4.5 ± 0.25 h | 9.14 ± 1.6 h | 5.16 ± 0.74 h | 10.8 ± 1 h
MDYRKIIKEIGRGKNHARDLDRDTARGLYAHMLNGEVPDLELGGVLIALRIKGEGEAEMLGFYEAMQNHTIKLTPPAGKPMPIVIPSYNGARKQANLTPLLAILLHKLGFPVVVHGVSEDPTRVLTETIFELMGITPTLHGGQAQAKLDEHQPVFMPVGAFCPPLEKQLAMRWRMGVRNSAHTLAKLATPFAEGEALRLSSVSHPEYIGRVAKFFSDIGGRALLMHGTEGEVYANPQRCPQINLIDREGMRVLYEKQDTAGSELLPQAKDPETTAQWIERCLAGSEPIPESLKIQMACCLVATGEAATISDGLARVNQAF | 4.81 ± 0.7 h | 4.14 ± 0.24 h | 4.41 ± 0.12 h | 5.22 ± 0.37 h | 4.44 ± 0.42 h | 3.09 ± 0.67 h | 5.84 ± 0.53 h | 9.72 ± 1.2 h | 4.54 ± 0.17 h | 7.03 ± 0.37 h | 5.83 ± 0.098 h | 11.7 ± 0.24 h
MAYSIGIDSGSTATKGILLADGVITRRFLVPTPFRPATAITEAWETLREGLETTPFLTLTGYGRQLVDFADKQVTEISCHGLGARFLAPATRAVIDIGGQDSKVIQLDDDGNLCDFLMNDKCAAGTGRFLEVISRTLGTSVEQLDSITENVTPHAITSMCTVFAESEAISLRSAGVAPEAILAGVINAMARRSANFIARLSCEAPILFTGGVSHCQKFARMLESHLRMPVNTHPDAQFAGAIGAAVIGQRVRTRR | 4.12 h | 4.27 h | – | – | – | 2.01 ± 0.18 h | 3.66 ± 0.33 h | 6.35 ± 0.44 h | – | – | – | –
MKALHFGAGNIGRGFIGKLLADAGIQLTFADVNQVVLDALNARHSYQVHVVGETEQVDTVSGVNAVSSIGDDVVDLIAQVDLVTTAVGPVVLERIAPAIAKGQVKRKEQGNESPLNIIACENMVRGTTQLKGHVMNALPEDAKAWVEEHVGFVDSAVDRIVPPSASATNDPLEVTVETFSEWIVDKTQFKGALPNIPGMELTDNLMAFVERKLFTLNTGHAITAYLGKLAGHQTIRDAILDEKIRAVVKGAMEESGAVLIKRYGFDADKHAAYIQKILGRFENPYLKDDVERVGRQPLRKLSAGDRLIKPLLGTLEYGLPHKNLIEGIAAAMHFRSEDDPQAQELAALIADKGPQAALAQISGLDANSEVVSEAVTAYKAMQ | 5.84 ± 2 h | 4.85 ± 0.21 h | 5.32 ± 0.44 h | 4.91 ± 0.1 h | 4.6 ± 0.39 h | – | 6.18 ± 0.63 h | 10.8 ± 1.2 h | 4.86 ± 0.35 h | 8.39 ± 0.13 h | 6.02 ± 0.068 h | 11.6 ± 0.34 h
